These results are taken from patent publication US20160252527A1 (Takeda / Millennium, published 2016).

For assay [1], the target named is human plasma kallikrein (pKal) (human, UniProt P03952 20-638). Kind of assay: cell-based or functional assay.
Assay [2] has as its target cynomolgus monkey plasma kallikrein (pKal) (cynomolgus monkey). Put plainly: cell-based or functional assay.

Sequence of human plasma kallikrein (pKal) (P03952 20-638 limits assumed): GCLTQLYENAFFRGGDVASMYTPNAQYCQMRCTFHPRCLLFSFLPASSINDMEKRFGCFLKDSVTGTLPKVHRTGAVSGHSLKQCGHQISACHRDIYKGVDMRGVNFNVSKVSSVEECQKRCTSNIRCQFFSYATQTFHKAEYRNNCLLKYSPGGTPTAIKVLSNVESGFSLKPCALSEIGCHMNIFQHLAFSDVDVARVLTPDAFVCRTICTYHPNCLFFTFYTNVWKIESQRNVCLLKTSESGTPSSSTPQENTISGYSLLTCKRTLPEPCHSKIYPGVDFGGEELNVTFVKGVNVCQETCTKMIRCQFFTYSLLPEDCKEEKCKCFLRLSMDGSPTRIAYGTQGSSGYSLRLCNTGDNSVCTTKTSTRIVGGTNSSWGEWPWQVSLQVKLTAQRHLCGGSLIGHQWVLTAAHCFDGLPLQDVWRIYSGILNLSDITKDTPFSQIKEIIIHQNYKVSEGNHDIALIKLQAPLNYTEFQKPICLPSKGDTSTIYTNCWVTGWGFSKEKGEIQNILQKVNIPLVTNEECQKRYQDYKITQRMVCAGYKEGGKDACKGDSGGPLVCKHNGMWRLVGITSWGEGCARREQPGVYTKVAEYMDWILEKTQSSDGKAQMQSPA
Sequence of cynomolgus monkey plasma kallikrein (pKal) (cynomolgus monkey) (chain, as listed by the source): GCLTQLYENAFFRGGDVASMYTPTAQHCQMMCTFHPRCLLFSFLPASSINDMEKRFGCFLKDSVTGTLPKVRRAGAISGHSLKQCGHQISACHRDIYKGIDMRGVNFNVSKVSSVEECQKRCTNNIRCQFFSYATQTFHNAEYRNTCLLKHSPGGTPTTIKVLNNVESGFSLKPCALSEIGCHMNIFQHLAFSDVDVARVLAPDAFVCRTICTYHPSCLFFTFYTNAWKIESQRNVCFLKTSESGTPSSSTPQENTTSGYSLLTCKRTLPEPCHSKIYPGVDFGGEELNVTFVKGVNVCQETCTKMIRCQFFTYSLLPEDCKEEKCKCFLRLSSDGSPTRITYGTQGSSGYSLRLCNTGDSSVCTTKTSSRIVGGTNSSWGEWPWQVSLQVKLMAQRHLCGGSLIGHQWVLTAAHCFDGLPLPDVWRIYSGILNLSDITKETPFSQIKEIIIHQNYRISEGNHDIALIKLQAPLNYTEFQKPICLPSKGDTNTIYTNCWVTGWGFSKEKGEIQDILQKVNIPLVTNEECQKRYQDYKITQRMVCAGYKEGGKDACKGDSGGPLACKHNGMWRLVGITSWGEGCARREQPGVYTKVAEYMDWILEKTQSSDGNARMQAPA

B1: alpha 2 macroglobulin (α2M) (other, UniProt P01023 24-1474, looked up)
chain: SVSGKPQYMVLVPSLLHTETTEKGCVLLSYLNETVTVSASLESVRGNRSLFTDLEAENDVLHCVAFAVPKSSSNEEVMFLTVQVKGPTQEFKKRTTVMVKNEDSLVFVQTDKSIYKPGQTVKFRVVSMDENFHPLNELIPLVYIQDPKGNRIAQWQSFQLEGGLKQFSFPLSSEPFQGSYKVVVQKKSGGRTEHPFTVEEFVLPKFEVQVTVPKIITILEEEMNVSVCGLYTYGKPVPGHVTVSICRKYSDASDCHGEDSQAFCEKFSGQLNSHGCFYQQVKTKVFQLKRKEYEMKLHTEAQIQEEGTVVELTGRQSSEITRTITKLSFVKVDSHFRQGIPFFGQVRLVDGKGVPIPNKVIFIRGNEANYYSNATTDEHGLVQFSINTTNVMGTSLTVRVNYKDRSPCYGYQWVSEEHEEAHHTAYLVFSPSKSFVHLEPMSHELPCGHTQTVQAHYILNGGTLLGLKKLSFYYLIMAKGGIVRTGTHGLLVKQEDMKGHFSISIPVKSDIAPVARLLIYAVLPTGDVIGDSAKYDVENCLANKVDLSFSPSQSLPASHAHLRVTAAPQSVCALRAVDQSVLLMKPDAELSASSVYNLLPEKDLTGFPGPLNDQDNEDCINRHNVYINGITYTPVSSTNEKDMYSFLEDMGLKAFTNSKIRKPKMCPQLQQYEMHGPEGLRVGFYESDVMGRGHARLVHVEEPHTETVRKYFPETWIWDLVVVNSAGVAEVGVTVPDTITEWKAGAFCLSEDAGLGISSTASLRAFQPFFVELTMPYSVIRGEAFTLKATVLNYLPKCIRVSVQLEASPAFLAVPVEKEQAPHCICANGRQTVSWAVTPKSLGNVNFTVSAEALESQELCGTEVPSVPEHGRKDTVIKPLLVEPEGLEKETTFNSLLCPSGGEVSEELSLKLPPNVVEESARASVSVLGDILGSAMQNTQNLLQMPYGCGEQNMVLFAPNIYVLDYLNETQQLTPEIKSKAIGYLNTGYQRQLNYKHYDGSYSTFGERYGRNQGNTWLTAFVLKTFAQARAYIFIDEAHITQALIWLSQRQKDNGCFRSSGSLLNNAIKGGVEDEVTLSAYITIALLEIPLTVTHPVVRNALFCLESAWKTAQEGDHGSHVYTKALLAYAFALAGNQDKRKEVLKSLNEEAVKKDNSVHWERPQKPKAPVGHFYEPQAPSAEVEMTSYVLLAYLTAQPAPTSEDLTSATNIVKWITKQQNAQGGFSSTQDTVVALHALSKYGAATFTRTGKAAQVTIQSSGTFSSKFQVDNNNRLLLQQVSLPELPGEYSMKVTGEGCVYLQTSLKYNILPEKEEFPFALGVQTLPQTCDEPKAHTSFQISLSVSYTGSRSASNMAIVDVKMVSGFIPLKPTVKMLERSNHVSRTEVSSNHVLIYLDKVSNQTLSLFFTVLQDVPVRDLKPAIVKVYDYYETDEFAIAEYNAPCSKDLGNA
For the molecule B1, in assay [1], the “IC50 (read off the curve)” value was around 400 nM.

B2: DX-2930 (antibody, INN chains, looked up, V domains shown)
VH: EVQLLESGGGLVQPGGSLRLSCAASGFTFSHYIMMWVRQAPGKGLEWVSGIYSSGGITVYADSVKGRFTISRDNSKNTLYLQMNSLRAEDTAVYYCAYRRIGVPRRDEFDIWGQGTMVTVSS
VL: DIQMTQSPSTLSASVGDRVTITCRASQSISSWLAWYQQKPGKAPKLLIYKASTLESGVPSRFSGSGSGTEFTLTISSLQPDDFATYYCQQYNTYWTFGQGTKVEIK
Molecule B2 displayed a percent inhibition of pKal activity (Pro-Phe-Arg-AMC substrate) after ex vivo FXIIa activation of plasma of a dosed monkey, drug level ~265 nM in assay [2] of 80%. In addition, in assay [1], the % Reduction of one-chain HMWK (XIIa activated plasma, 9 nM DX2930; Protein Simple Western) was determined as 92.1%; the % Reduction of one-chain HMWK (XIIa activated plasma, 27 nM DX2930; Protein Simple Western) was 90.4%; the % Reduction of one-chain HMWK (XIIa activated plasma, 80 nM DX2930; Protein Simple Western) was determined as 79%; the % Reduction of one-chain HMWK (XIIa activated plasma, 240 nM DX2930; Protein Simple Western) was determined as 63.9%. In assay [1], this molecule yielded a % Reduction of one-chain HMWK (XIIa activated plasma, 480 nM DX2930; Protein Simple Western) of 54.9%; an Area of the one-chain HMWK peak (XIIa activated plasma, 9 nM DX2930; Protein Simple Western) of 842; an Area of the one-chain HMWK peak (XIIa activated plasma, 27 nM DX2930; Protein Simple Western) of 1030; an Area of the one-chain HMWK peak (XIIa activated plasma, 80 nM DX2930; Protein Simple Western) of 2230. In assay [1], the Area of the one-chain HMWK peak (XIIa activated plasma, 240 nM DX2930; Protein Simple Western) was found to be 3840; the Area of the one-chain HMWK peak (XIIa activated plasma, 480 nM DX2930; Protein Simple Western) stood at 4800; the maximal inhibition of pKal activity (PFR-AMC substrate), plasma of dose group 3 (1.0 mg/kg DX-2930) came out at 19%; the maximal inhibition of pKal activity (PFR-AMC substrate), plasma of dose group 4 (3.0 mg/kg DX-2930) worked out at 36%.
